± gives the standard deviation of the averaged measurements.
What was measured:
[1] = melting temperature (DSF); higher = more thermostable
Outline: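 After expression in E. coli C41(DE3), the candidate enzymes were bound to nickel beads and released with SUMO protease. Their melting temperature was found by differential scanning fluorimetry with Sypro Orange on a Bio-Rad CFX96. Each sealed PCR plate well held 45 μL enzyme (0 to 0.3 mg/mL) plus 5 μL 5X dye, and fluorescence was read for 250 cycles from 25 °C at 0.3 °C per cycle (ramp 0.3 °C/s).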

[2] = purified protein yield per well (BCA); higher = higher soluble expression
Outline: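 Candidate enzymes were produced in E. coli C41(DE3) grown in 2 mL autoinduction cultures containing 100 µg/mL kanamycin, first at 37 °C for 2 h and then at 18 °C for 40 h. After cell lysis, protein was captured on Ni-charged magnetic beads and freed by SUMO protease cleavage on an OT-2 robot. Purified protein yield per well was read with the Pierce Rapid Gold BCA kit. Values under 25 ug (0.1 mg/mL) fall below the detection threshold.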

[3] = PET hydrolysis, aromatic products released after 48 h (umol product/mg enzyme); higher = more PET depolymerization activity
Outline: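 Reactions ran in sealed plates without shaking for 48 h at 40 or 60 °C. Each held 3.5 mg amorphous PET film or crystalline PET powder, 450 μL buffer and 5 μg (50 μL) of tagless, SUMO-cleaved, nickel-purified candidate enzyme. Buffers were 50 mM NaCitrate at pH 4.5 or 5.5, 50 mM NaPhosphate at pH 6.5 or 7.5, and glycine at pH 8.5. The supernatant's aromatic product, read at 260 and 280 nm against buffer blanks, gives PET hydrolysis activity per mg enzyme.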

[4] = substrate: cryPow, 40 °C, pH 4.5
[5] = substrate: cryPow, 40 °C, pH 5.5
[6] = substrate: cryPow, 40 °C, pH 6.5
[7] = substrate: cryPow, 40 °C, pH 7.5
[8] = substrate: cryPow, 60 °C, pH 4.5
[9] = substrate: cryPow, 60 °C, pH 5.5
[10] = substrate: cryPow, 60 °C, pH 6.5
[11] = substrate: cryPow, 60 °C, pH 7.5
[12] = substrate: aFilm, 40 °C, pH 4.5
[13] = substrate: aFilm, 40 °C, pH 5.5
[14] = substrate: aFilm, 40 °C, pH 6.5
[15] = substrate: aFilm, 40 °C, pH 7.5
[16] = substrate: aFilm, 60 °C, pH 4.5
[17] = substrate: aFilm, 60 °C, pH 5.5
[18] = substrate: aFilm, 60 °C, pH 6.5
[19] = substrate: aFilm, 60 °C, pH 7.5

Sequence	melting temperature [1] [C]	purified protein yield per well [2] [µg]	PET hydrolysis [3, 4]	PET hydrolysis [3, 5]	PET hydrolysis [3, 6]	PET hydrolysis [3, 7]	PET hydrolysis [3, 8]	PET hydrolysis [3, 9]	PET hydrolysis [3, 10]	PET hydrolysis [3, 11]	PET hydrolysis ([3]; substrate: cryPow, 40 °C, pH 8.5)	PET hydrolysis ([3]; substrate: cryPow, 60 °C, pH 8.5)	PET hydrolysis [3, 12]	PET hydrolysis [3, 13]	PET hydrolysis [3, 14]	PET hydrolysis [3, 15]	PET hydrolysis [3, 16]	PET hydrolysis [3, 17]	PET hydrolysis [3, 18]	PET hydrolysis [3, 19]
ENAIINGTYSLIVTQSGKALDTSQWGTIDGTNITLNDYWGGESQKFIITPVDGIWHRITPVIAPDQAFDVSKCSPNVGANIQTWSYEGGACQQFRFAETGNGTYQIITRGTDMSLNVNNLSEENDTNVMQSTSTGKENQIFTLRRHAESHISGNCPDGAICRDEEAPGLYDGKGPYNVRSYELPGAYVTLPATARVYYPANAEPPYSGIVFCPPFMTKQIAFAAWGPWFASHGMVLVTMDTTTIFDQVTARDNQQWRVVKALRRENTRLGSPLRGKLDTDKIGIMGWSMGGGASWINAGKHRDELKTVISLAGHNMTAWYNTDIYSWYSPEELLDAAYASGRLIKIPALIINGALDTTILGGLGQSDGVYRSISNTPKVLAVLGLAGHFAWGYPTQAGRGVASLVLAFEKTFLDGDTRWAPYIQKPSAPMRKWRTADLP [TEP050]	46.3	60.6	< 3	< 3	< 3	< 3	< 3	< 3	< 3	< 3	–	–	–	–	–	–	–	–	–	–
APDTVVGNPFARGPDPTKESIEAERGPFAVATEKVPGGKGFGGGTIHYPTDTSQGTFGAIAVAPGFTESESAIAWYGPRLASQGFVVITISTNGLWDLPASRADQLLAALRHVTDASQIKSRVDRDRLAVMGHSMGGGGSLIAARNNPALKATIPLTGWNPNTSFSDLKVPTFVVSAQNDFIAPDGSHSRPFYQSLPASLNKAYMRLAGVGHMAPVNPNVTIAKYSISWLKRFVDNDTRYSQFLCPLPTGDPKIAAYEGTCPLS [DP008]	50.5	67	–	4	20	40	–	< 3	9	9	50	9	–	–	–	–	–	–	–	–
MMPSADAASTLADNPYQRGPDPTVASVAAAYGTFATAQLTVPPGNGFNGGSIYYPTDTSQTYGAVAIVPGYTARFADEEAWMGPRLASFGFVVIGVETNSRNDFDTARGTQLLAALDYLTNSSAVRDRVDRNRLAVIGHSMGGGGALVAADQRPSLKAAIGLAPYKPSGNLANNRVPTLILSGQNDTVVTPSYLDGLYPTLPAATPGAYILLSGADHLFFTRPNDIEMRSQIPWLKTFVDNDTRYSQFLCPTLKDTTSVARSTAKCSLIPSGGNPSTPPSSSSPSPSSPASSSPPPSGAKHIVGAQSGRCVDVPNSSRTNGTRVQLYDCHSGTNQQWTYTSSRQLTVYGSMCLDAAGSGNGAAVQIYSCNGQANQQWNVNSNGTISGVQSGRCLDVWGTNNGQQIQLYDCHGQANQRFSLS [TEP054]	60.7	297	14 ± 4.2	24 ± 2.8	35	18 ± 2.8	2 ± 2.8	7 ± 1.4	7.5 ± 2.1	1.5 ± 2.1	–	–	3	8 ± 1.4	9.5 ± 0.71	< 3	< 3	< 3	< 3	< 3
ADNPYQRGPDPTQSSVTAVNGPFANTSVSVPTGYGFNGGRIYYPTDTSQGTFGAIAISPGYTALFSAELAWMGPWLASHGFVVIGIETNSRNDFDTARGTQLLAALDYLTQQSPVRDRVDPTRLAVAGHSMGGGGALSAAMRRPSLKAVVGIAPYSPSSNLANDRVPTMILSGQADTVVTPSYATGLYNSLPSTTESVYLEVAGADHGFMVGRPNPVMVRTMLPFVKMFVDNDARYSQFLCPLLDSSGVVTYRSTCPLLPTTPTTPTPTTPGPTTPGPTPTVSPSVPPTSAGEIVGTQSGRCIDVPNASRNNGTRVQLYDCNRQTNQTWTYTSGKQLQVYGNMCLDAAGTGNGAAVQIYSCHSQTNQQWNINANGTISNVQSGRCLDAWSTANGAQIQLYDCHGQTNQQFRLVARA [ESM075]	62.2	233	12.5 ± 2.1	21 ± 1.4	23 ± 1.4	7	< 3	1.5 ± 2.1	< 3	< 3	–	–	< 3	4	< 3	< 3	< 3	< 3	< 3	< 3
ASYQRGPDPTVQSVAANRGTFPTAEITVPRGYGFNGGKIYYPTDTSQGTWGAIAAVPGYTASWAAEGAWMGPWLASFGFVVIGIDTNSPTDFDTARGTQLLAALDYLTGQSAVRDRVDPNRLAVLGHSMGGGGAISAAMRRPTLKAAIPLAPASFSQNLSTVRVPTLIMGARDDGTVTPSSINSLWATKPATTKGAYVELTGGGHGFPTWGNSQVTRREIPWLKIFLDNDNRYTQFLCPSLADNTGVSRYLSECPYGSTGQPTSPPSTPPPTSGGPVRAVGAGKCLDVPNASQTNDTQLAIWDCNGGTNQRWTRTAGKQLTVYGNKCLDAAGQGTTNGTRVIIWDCTGTANQQWNVNANGTITGVQSGLCLDVSGGSTANGALTQLWACNNGSNQQWRLG [ESM070]	64.6	254	< 3	4	10	17	< 3	< 3	< 3	< 3	–	–	–	–	–	–	–	–	–	–

From the supplement of paper PMC12455559
